Data: article doi:10.1101/621219 (bioRxiv, 2019)
Values joined by “and” are separate entries in the source; they are usually repeats but may differ in a detail not shown here. Identical values can stand only once. Like-named read-outs stand apart in the source and are kept apart here.

What was measured:
[1] = molecular target: T1, FoxA, TonB-dependent ferrioxamine B transporter from Pseudomonas aeruginosa PAO1 (full-length) (Pseudomonas aeruginosa strain PAO1, UniProt Q9I116 1-820); experiment: ITC
T1 sequence (looked up): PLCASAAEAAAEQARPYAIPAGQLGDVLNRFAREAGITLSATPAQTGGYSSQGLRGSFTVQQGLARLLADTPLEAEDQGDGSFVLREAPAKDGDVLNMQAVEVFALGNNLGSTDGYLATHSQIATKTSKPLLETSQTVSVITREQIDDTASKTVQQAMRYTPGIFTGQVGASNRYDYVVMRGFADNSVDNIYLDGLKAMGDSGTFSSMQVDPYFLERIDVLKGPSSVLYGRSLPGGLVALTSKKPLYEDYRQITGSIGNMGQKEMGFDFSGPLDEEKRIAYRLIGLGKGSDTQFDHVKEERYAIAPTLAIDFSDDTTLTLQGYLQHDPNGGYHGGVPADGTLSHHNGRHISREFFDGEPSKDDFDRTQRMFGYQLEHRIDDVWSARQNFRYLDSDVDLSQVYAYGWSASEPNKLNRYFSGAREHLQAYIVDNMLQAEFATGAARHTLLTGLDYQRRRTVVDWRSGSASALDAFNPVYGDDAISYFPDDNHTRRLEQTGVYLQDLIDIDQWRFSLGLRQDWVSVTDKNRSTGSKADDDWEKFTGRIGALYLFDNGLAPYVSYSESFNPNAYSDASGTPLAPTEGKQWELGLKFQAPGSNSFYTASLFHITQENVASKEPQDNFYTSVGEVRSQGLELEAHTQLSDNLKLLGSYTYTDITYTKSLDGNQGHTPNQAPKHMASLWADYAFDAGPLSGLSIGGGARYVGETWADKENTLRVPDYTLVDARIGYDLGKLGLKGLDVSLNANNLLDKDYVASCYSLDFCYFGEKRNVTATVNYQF

[2] = molecular target: T1, FoxA, TonB-dependent ferrioxamine B …; experiment: ITC; remark: listed apart in the source

B1: C-terminal domain of TonB1 from Pseudomonas aeruginosa PAO1 (residues 251-340) (domain or fragment, Pseudomonas aeruginosa strain PAO1, UniProt Q51368 251-340, looked up)
chain: DSDIKPLRMDPPVYPRMAQARGIEGRVKVLFTITSDGRIDDIQVLESVPSRMFDREVRQAMAKWRFEPRVSGGKIVARQATKMFFFKIEK
Kd [1]: 6 nM and 6 to 10 nM
dH [1]: -19.2 ± 0.4 kcal/mol
Kd [2]: 107 ± 30 nM
dH [2]: -11 ± 0.3 kcal/mol
